We go through 3 substances from patent US20230045284A1.

The target in this experiment is Total cellular Ras (all isoforms KRas, HRas and NRas, endogenous, in human cell lines). The experiment is described as follows: cell-based or functional assay.

Regarding “RRSP*-DTB (catalytically inactive RRSP H4030A fused to DTB) (from UniProt P00588 186-535) (enzyme)”, the dose needed for depletion of RAS in HCT-116 spheroids relative to RRSP-DTB is 10 fold.
“RRSP-CPD-DTa-DTB (RRSP fused to the MARTX cysteine protease domain and detoxified diphtheria toxin) (from UniProt P00588 33-567) (enzyme)” had a concentration giving partial RAS inactivation, western blot, HCT-116 cells of 100 pM.
The substance “RRSP-DTB (RRSP fused via a (G4S)2 linker to diphtheria toxin residues 186-535, DTT-DTR) (from UniProt P00588 186-535) (enzyme)” registered an IC50 of cell viability after 72 hours, HCT-116 cells of 1.5 pM; an IC50 of cell viability at 72 h, MDA-MB-436 cells of 5 pM; an IC50 of cell viability, MDA-MB-231 cells, 72 hours of 12 pM; an IC50 of viability of HCT-116 spheroids after 7 days of 85 pM. This substance also registered a concentration giving complete cleavage of RAS after 1 h, western blot, MDA-MB-436 cells of 10 nM.
